Measured values reported in the supplement of paper PMC10567573.

B1: MLH1 (parent)
chain: YNIATRRKALKNPSEEYGKILEVV

Variants of: B1
Experiment: protein stability index of a GFP-peptide fusion (GPS, HEK-293T) (PSI 1-6); higher = more stable
Conditions: c terminus: a fixed tail appended
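Further: lentivirally expressed fusions sorted by FACS into six bins by GFP to DsRed ratio, PSI derived from sequencing read proportions per bin multiplied by bin number.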

Going from YNIATRRKALKNPSEEYGKQLEVV to YNIATRRKALKNPSEEYGKVLEVV, the protein stability index rises from 3.8 to 4.05.

First: YNIATRRKALKNPSEEYGKHLEVV
Second: YNIATRRKALKNPSEEYGKGLEVV
The protein stability index of the first is higher: 3.59 for the first, 3.52 for the second.

Compared with YNIATRRKALKNPSEEYGKNLEVV, YNIATRRKALKNPSEEYGKTLEVV is higher in protein stability index: 3.54 for the first, 3.62 for the second.

First: YNIATRRKALKNPSEEYGKDLEVV
Second: YNIATRRKALKNPSEEYGKMLEVV
The protein stability index of the first is higher: 4.34 for the first, 3.13 for the second.

First: YNIATRRKALKNPSEEYGKWLEVV
Second: YNIATRRKALKNPSEEYGKSLEVV
The protein stability index of the first is lower: 2.82 for the first, 4.11 for the second.

Going from YNIATRRKALKNPSEEYGKPLEVV to YNIATRRKALKNPSEEYGKELEVV, the protein stability index rises from 3.3 to 3.54.

Going from YNIATRRKALKNPSEEYGKFLEVV to YNIATRRKALKNPSEEYGKCLEVV, the protein stability index rises from 2.39 to 3.89.

Compared with YNIATRRKALKNPSEEYGKALEVV, YNIATRRKALKNPSEEYGKRLEVV is higher in protein stability index: 3.46 for the first, 3.6 for the second.

Going from YNIATRRKALKNPSERYGKILEVV to YNIATRRKALKNPSEKYGKILEVV, the protein stability index falls from 2.5 to 2.1.

First: YNIATRRKALKNPSEGYGKILEVV
Second: YNIATRRKALKNPSEMYGKILEVV
The protein stability index of the first is higher: 2.89 for the first, 2.15 for the second.

First: YNIATRRKALKNPSEAYGKILEVV
Second: YNIATRRKALKNPSELYGKILEVV
The protein stability index of the first is higher: 2.37 for the first, 1.99 for the second.

Compared with YNIATRRKALKNPSEPYGKILEVV, YNIATRRKALKNPSEDYGKILEVV is higher in protein stability index: 2.17 for the first, 2.75 for the second.

Compared with YNIATRRKALKNPSECYGKILEVV, YNIATRRKALKNPSEFYGKILEVV is lower in protein stability index: 1.85 for the first, 1.62 for the second.

Going from YNIATRRKALKNPSEYYGKILEVV to YNIATRRKALKNPSEVYGKILEVV, the protein stability index rises from 1.88 to 2.49.

Compared with YNIATRRKALKNPSESYGKILEVV, YNIATRRKALWNPSEEYGKILEVV is lower in protein stability index: 2.71 for the first, 2.19 for the second.

First: YNIATRRKALMNPSEEYGKILEVV
Second: YNIATRRKALNNPSEEYGKILEVV
The protein stability index of the first is higher: 2.85 for the first, 2.69 for the second.

First: YNIATRRKALFNPSEEYGKILEVV
Second: YNIATRRKALENPSEEYGKILEVV
The protein stability index of the first is lower: 1.95 for the first, 3.48 for the second.

Compared with YNIATRRKALVNPSEEYGKILEVV, YNIATRRKALLNPSEEYGKILEVV is lower in protein stability index: 2.53 for the first, 2.43 for the second.

First: YNIATRRKALINPSEEYGKILEVV
Second: YNIATRRKALSNPSEEYGKILEVV
The protein stability index of the first is lower: 2.04 for the first, 2.48 for the second.

Going from YNIATRRKDLKNPSEEYGKILEVV to YNIATRRKVLKNPSEEYGKILEVV, the protein stability index falls from 3.2 to 2.55.

Going from YNIATRRKKLKNPSEEYGKILEVV to YNIATRRKQLKNPSEEYGKILEVV, the protein stability index falls from 2.71 to 2.55.

First: YNIATRRKELKNPSEEYGKILEVV
Second: YNIATRRKYLKNPSEEYGKILEVV
The protein stability index of the first is higher: 2.99 for the first, 2.09 for the second.

First: YNIATRRKSLKNPSEEYGKILEVV
Second: YNIATRRKLLKNPSEEYGKILEVV
The protein stability index of the first is higher: 2.93 for the first, 2.17 for the second.

Compared with YNIATRRKWLKNPSEEYGKILEVV, YNIATRDKALKNPSEEYGKILEVV is higher in protein stability index: 2.75 for the first, 2.84 for the second.

Compared with YNIATRTKALKNPSEEYGKILEVV, YNIATRVKALKNPSEEYGKILEVV is lower in protein stability index: 2.95 for the first, 2.39 for the second.

First: YNIATRKKALKNPSEEYGKILEVV
Second: YNIATRWKALKNPSEEYGKILEVV
The protein stability index of the first is higher: 2.48 for the first, 1.78 for the second.

Going from YNIATRAKALKNPSEEYGKILEVV to YNIATRHKALKNPSEEYGKILEVV, the protein stability index rises from 2.5 to 2.69.

Compared with YNIATREKALKNPSEEYGKILEVV, YNIATRCKALKNPSEEYGKILEVV is lower in protein stability index: 3.66 for the first, 2.37 for the second.

First: YNIATRPKALKNPSEEYGKILEVV
Second: YNIATRGKALKNPSEEYGKILEVV
The protein stability index of the first is higher: 3.14 for the first, 2.78 for the second.

Going from YNIATRRKAPKNPSEEYGKILEVV to YNIATRRKATKNPSEEYGKILEVV, the protein stability index falls from 3.23 to 3.14.

Compared with YNIATRRKAFKNPSEEYGKILEVV, YNIATRRKARKNPSEEYGKILEVV is higher in protein stability index: 3.02 for the first, 3.13 for the second.

Compared with YNIATRRKAMKNPSEEYGKILEVV, YNIATRRKAAKNPSEEYGKILEVV is higher in protein stability index: 2.86 for the first, 3.09 for the second.

Going from YNIATRRKAHKNPSEEYGKILEVV to YNIATRRKAIKNPSEEYGKILEVV, the protein stability index rises from 3 to 3.22.

Going from YNIATRRKAGKNPSEEYGKILEVV to YNIATRRKACKNPSEEYGKILEVV, the protein stability index falls from 2.99 to 2.84.

Going from YNIATRRKAKKNPSEEYGKILEVV to YNIATRRKAVKNPSEEYGKILEVV, the protein stability index falls from 3.31 to 3.07.

First: YNIATRRKAEKNPSEEYGKILEVV
Second: YNIATRRKALKNPSEEYEKILEVV
The protein stability index of the first is higher: 3.53 for the first, 3.29 for the second.

Going from YNIATRRKALKNPSEEYWKILEVV to YNIATRRKALKNPSEEYKKILEVV, the protein stability index rises from 1.46 to 2.97.

Compared with YNIATRRKALKNPSEEYNKILEVV, YNIATRRKALKNPSEEYQKILEVV is lower in protein stability index: 3.13 for the first, 2.7 for the second.

First: YNIATRRKALKNPSEEYLKILEVV
Second: YNIATRRKALKNPSEEYCKILEVV
The protein stability index of the first is lower: 2.15 for the first, 2.5 for the second.

First: YNIATRRKALKNPSEEYFKILEVV
Second: YNIATRRKALKNPSEEYTKILEVV
The protein stability index of the first is lower: 2.16 for the first, 2.19 for the second.

First: YNIATRRKALKNPSEEYAKILEVV
Second: YNIATRRKALKNPSEEYVKILEVV
The protein stability index of the first is higher: 2.21 for the first, 1.95 for the second.

First: YNIATRRKALKNPSEEYIKILEVV
Second: YNIATRRKALKNPSEEYPKILEVV
The protein stability index of the first is lower: 2.16 for the first, 3.03 for the second.

First: YNIATRRKALKNPSEEYRKILEVV
Second: YNIATRRKALKNPSEEYDKILEVV
The protein stability index of the first is lower: 2.4 for the first, 3.15 for the second.

First: YNIATRRKALKNPSEEYYKILEVV
Second: YNIATGRKALKNPSEEYGKILEVV
The protein stability index of the first is lower: 2.34 for the first, 2.76 for the second.

First: YNIATVRKALKNPSEEYGKILEVV
Second: YNIATWRKALKNPSEEYGKILEVV
The protein stability index of the first is higher: 2.1 for the first, 1.96 for the second.

Going from YNIATTRKALKNPSEEYGKILEVV to YNIATSRKALKNPSEEYGKILEVV, the protein stability index rises from 2.32 to 2.7.

First: YNIATLRKALKNPSEEYGKILEVV
Second: YNIATNRKALKNPSEEYGKILEVV
The protein stability index of the first is lower: 1.79 for the first, 2.85 for the second.
